The target of test [1] is human VLA4 (integrin alpha4beta1) on the surface of U937 cells (human, UniProt P13612 34-1032; P05556 21-798). Description: cell-based or functional assay.
Test [2] deals with T1, human VLA4-Fc (alpha4-Fc/beta1-Fc heterodimer) (human).
T1 construct: Soluble heterodimer from CHO cells, Protein A purified; also called VLA-Fc
Put plainly: ELISA, VLA4-Fc coated, 1 mM MnCl2; from EC50 values. As to the method:
The relative binding affinities of various 2D-VCAM-1 variants to immobilized VLA4-Fc (α4-β1-Fc) heterodimer, relative to a control protein (e.g., Q38L-2D-VCAM-1 or to human 2D-VCAM-1), were deter using a solid-phase ELISA assay. MAXISORP™ ELISA plates (NUNC) were coated overnight at 4° C. with 50 ul VLA4-Fc heterodimer, 2 ug/ml in TBS-M (TBS (25 mM Tris-HCl pH 7.5, 150 mM NaCl) with 1 mM MnCl2), washed with TBS-T (TBS with 0.05% TWEEN-20), blocked with 200 ul 3% milk in TBS-M for 1 h at room temperature, and washed again with TBS-T. A four-fold dilution series of the purified 2D-VCAM variants to be assayed was made in COSTAR U-bottom plates in TBS-TMC (TBS with 0.05% Tween-20, 1 mM MnCl2, and 1% casein; Sigma) with a starting concentration of 8.2 uM (200 ug/ml). The dilution series was transferred into the ELISA plate which was incubated at room temperature for 2 h and subsequently washed with TBS-T. Bound 2D-VCAM protein was detected by incubation with 0.5 ug/ml of biotinylated anti-human VCAM antibody (R&D Systems, Catalog No. BAF809) in TBS-TMC for 1 h at room temperature followed by a TBS-MT (TBS plus 1 mM MnCl2 and 0.02% TWEEN-20) wash and subsequent incubation with 1:2000 dilution of streptavidin-HRP (BD Biosciences, Catalog No. 554066) in TBS-TMC for 30 min at room temperature. […] Typical development times ranged from […] and development was stopped by addition of 50 ul 2M H₂SO₄ (EM, Catalog No. SX1244-75). […] Fold-improvement in binding was calculated relative to a control protein (e.g., Q38L-2D-VCAM-1 or human 2D-VCAM-1) assayed on the same plate.
(In general: An ELISA detects its analyte on a solid surface through an enzyme-linked reagent.)

Test [3] addresses T2, human LPAM-1-Fc (alpha4-Fc/beta7-Fc heterodimer) (human).
T2 construct: Soluble heterodimer from CHO cells, Protein A purified
Put plainly: ELISA, LPAM-1-Fc coated, 1 mM MnCl2; from EC50 values. The method, then: The relative binding affinities of various 2D-VCAM variant proteins to immobilized LPAM-1-Fc (α4-Fc/β-7-Fc) heterodimer, relative to a control protein (e.g., Q38L-2D-VCAM-1 or human 2D-VCAM-1), were determined using a solid-phase ELISA assay. MAXISORP™ ELISA plates (NUNC) were coated overnight at 4° C. with 50 ul LPAM-1-Fc heterodimer (2 ug/ml in TBS-M, TBS (25 mM TRIS-HCl pH 7.5, 150 mM NaCl with 1 mM MnCl2), washed with TBS-T (TBS with 0.05% Tween-20), blocked with 200 ul 3% milk in TBS-M for 1 hr at room temperature, and washed again with TBS-T. A four-fold dilution series of the purified 2D-VCAM-1 variants to he assayed was made in COSTAR U-bottom plates in TBS-TMC (TBS with 0.05% Tween-20, 1 mM MnCl2 and 1% casein; Sigma) with a starting concentration of 8.2 uM (200 ug/ml). The dilution, series were transferred into the ELISA plate which was incubated at room temperature for 2 h and subsequently washed with TBS-T. Bound 2D-VCAM-1 protein was detected by incubation with 0.5 ug/ml of biotinylated anti-human VCAM antibody (R&D Systems, Catalog No. BAF809) in TBS-TMC for 1 h at room temperature followed by a TBS-T wash and subsequent incubation with 1:2000 dilution of streptavidin-HRP (BD Biosciences, Catalog No. 554066) in TBS-TMC for 30 min at room temperature. […] Typical development times ranged from 5-15 min and development was stopped by addition of 50 ul 2M H₂SO₄ (EM, Catalog No. SX1244-75). […] Fold-improvement in binding was calculated relative to a control protein (Q38L-2D-VCAM-1) assayed on the same plate.

Test [4] concerns the target T1, human VLA4-Fc (alpha4-Fc/beta1-Fc …). Put plainly: ELISA, VLA4-Fc coated, 1 mM MnCl2; from EC50 values; ELISA, VLA4-Fc coated on plate, 1 mM MnCl2 (activated VLA4); fold relative to human 2D-VCAM-1. As to the method: The relative binding affinities of various 2D-VCAM-1 variants to immobilized VLA4-Fc (α4-β1-Fc) heterodimer, relative to a control protein (e.g., Q38L-2D-VCAM-1 or to human 2D-VCAM-1), were deter using a solid-phase ELISA assay. […] The dilution series was transferred into the ELISA plate which was incubated at room temperature for 2 h and subsequently washed with TBS-T. Bound 2D-VCAM protein was detected by incubation with 0.5 ug/ml of biotinylated anti-human VCAM antibody (R&D Systems, Catalog No. BAF809) in TBS-TMC for 1 h at room temperature followed by a TBS-MT (TBS plus 1 mM MnCl2 and 0.02% TWEEN-20) wash and subsequent incubation with 1:2000 dilution of streptavidin-HRP (BD Biosciences, Catalog No. 554066) in TBS-TMC for 30 min at room temperature. […] Fold-improvement in binding was calculated relative to a control protein (e.g., Q38L-2D-VCAM-1 or human 2D-VCAM-1) assayed on the same plate.

Where “and” joins values, the source holds several entries; their conditions need not be identical. Equal values may be shown once.

This is an account of results in patent US20120135912A1 (PERSEID THERAPEUTICS, published 2012).

T2 sequence (chain, as listed by the source limits assumed, chain 1 of 2): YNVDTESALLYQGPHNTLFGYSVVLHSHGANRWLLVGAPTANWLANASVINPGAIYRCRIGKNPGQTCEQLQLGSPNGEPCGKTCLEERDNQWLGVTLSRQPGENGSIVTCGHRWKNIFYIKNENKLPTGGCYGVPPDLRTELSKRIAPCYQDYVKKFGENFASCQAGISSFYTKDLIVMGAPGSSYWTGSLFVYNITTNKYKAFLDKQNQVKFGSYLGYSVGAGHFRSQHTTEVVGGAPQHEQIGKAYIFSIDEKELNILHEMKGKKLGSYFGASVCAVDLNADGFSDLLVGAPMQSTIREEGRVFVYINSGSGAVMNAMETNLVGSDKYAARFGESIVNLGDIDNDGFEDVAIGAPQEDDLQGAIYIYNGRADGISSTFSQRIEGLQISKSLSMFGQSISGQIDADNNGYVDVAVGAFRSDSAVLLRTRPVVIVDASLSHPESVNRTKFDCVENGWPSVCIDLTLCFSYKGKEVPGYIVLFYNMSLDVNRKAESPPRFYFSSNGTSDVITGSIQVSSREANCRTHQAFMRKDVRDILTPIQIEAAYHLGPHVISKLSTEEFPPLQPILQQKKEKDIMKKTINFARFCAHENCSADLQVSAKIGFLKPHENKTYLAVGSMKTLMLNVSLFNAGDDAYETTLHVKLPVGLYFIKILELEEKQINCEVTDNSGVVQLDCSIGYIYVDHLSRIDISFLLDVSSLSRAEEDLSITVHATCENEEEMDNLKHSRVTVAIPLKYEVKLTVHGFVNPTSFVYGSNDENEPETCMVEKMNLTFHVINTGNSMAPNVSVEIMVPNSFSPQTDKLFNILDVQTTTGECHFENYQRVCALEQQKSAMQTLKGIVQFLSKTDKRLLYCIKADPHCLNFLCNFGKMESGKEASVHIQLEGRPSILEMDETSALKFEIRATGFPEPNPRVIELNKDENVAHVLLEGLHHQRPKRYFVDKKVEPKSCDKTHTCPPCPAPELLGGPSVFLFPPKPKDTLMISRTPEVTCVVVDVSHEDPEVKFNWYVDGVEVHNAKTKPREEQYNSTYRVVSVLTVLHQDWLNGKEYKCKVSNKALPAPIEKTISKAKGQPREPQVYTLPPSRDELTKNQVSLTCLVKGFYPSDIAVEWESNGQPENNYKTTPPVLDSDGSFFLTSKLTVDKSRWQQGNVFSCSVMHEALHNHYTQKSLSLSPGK
T2 sequence (chain, as listed by the source limits assumed, chain 2 of 2): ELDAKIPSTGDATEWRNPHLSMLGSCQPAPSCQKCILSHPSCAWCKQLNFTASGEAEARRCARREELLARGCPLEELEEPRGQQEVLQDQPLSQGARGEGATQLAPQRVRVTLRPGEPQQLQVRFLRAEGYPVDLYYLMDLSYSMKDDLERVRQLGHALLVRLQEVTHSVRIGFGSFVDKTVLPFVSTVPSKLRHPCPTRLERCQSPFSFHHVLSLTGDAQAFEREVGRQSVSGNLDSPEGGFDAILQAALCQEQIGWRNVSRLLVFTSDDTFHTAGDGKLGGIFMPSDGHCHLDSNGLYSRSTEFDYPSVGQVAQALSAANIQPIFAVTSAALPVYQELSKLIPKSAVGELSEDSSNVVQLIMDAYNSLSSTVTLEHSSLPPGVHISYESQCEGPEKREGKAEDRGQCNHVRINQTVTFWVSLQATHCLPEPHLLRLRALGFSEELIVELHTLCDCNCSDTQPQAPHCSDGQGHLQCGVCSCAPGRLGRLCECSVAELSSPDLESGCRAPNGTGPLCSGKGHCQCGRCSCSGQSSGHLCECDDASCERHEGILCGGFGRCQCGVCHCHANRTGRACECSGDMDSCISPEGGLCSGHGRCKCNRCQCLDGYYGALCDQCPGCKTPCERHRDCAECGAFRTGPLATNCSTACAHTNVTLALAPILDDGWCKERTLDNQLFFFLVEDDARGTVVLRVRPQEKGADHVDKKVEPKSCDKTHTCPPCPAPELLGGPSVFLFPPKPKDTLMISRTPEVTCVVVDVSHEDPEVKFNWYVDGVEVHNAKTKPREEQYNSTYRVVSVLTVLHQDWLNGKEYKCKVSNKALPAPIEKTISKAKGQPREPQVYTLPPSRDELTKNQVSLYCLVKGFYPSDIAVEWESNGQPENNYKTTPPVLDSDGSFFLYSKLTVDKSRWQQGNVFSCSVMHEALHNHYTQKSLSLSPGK
T1 sequence (chain, as listed by the source limits assumed, form in doubt, chain 1 of 2): as the sequence (chain, as listed by the source limits assumed, chain 1 of 2) above
T1 sequence (chain, as listed by the source limits assumed, form in doubt, chain 2 of 2): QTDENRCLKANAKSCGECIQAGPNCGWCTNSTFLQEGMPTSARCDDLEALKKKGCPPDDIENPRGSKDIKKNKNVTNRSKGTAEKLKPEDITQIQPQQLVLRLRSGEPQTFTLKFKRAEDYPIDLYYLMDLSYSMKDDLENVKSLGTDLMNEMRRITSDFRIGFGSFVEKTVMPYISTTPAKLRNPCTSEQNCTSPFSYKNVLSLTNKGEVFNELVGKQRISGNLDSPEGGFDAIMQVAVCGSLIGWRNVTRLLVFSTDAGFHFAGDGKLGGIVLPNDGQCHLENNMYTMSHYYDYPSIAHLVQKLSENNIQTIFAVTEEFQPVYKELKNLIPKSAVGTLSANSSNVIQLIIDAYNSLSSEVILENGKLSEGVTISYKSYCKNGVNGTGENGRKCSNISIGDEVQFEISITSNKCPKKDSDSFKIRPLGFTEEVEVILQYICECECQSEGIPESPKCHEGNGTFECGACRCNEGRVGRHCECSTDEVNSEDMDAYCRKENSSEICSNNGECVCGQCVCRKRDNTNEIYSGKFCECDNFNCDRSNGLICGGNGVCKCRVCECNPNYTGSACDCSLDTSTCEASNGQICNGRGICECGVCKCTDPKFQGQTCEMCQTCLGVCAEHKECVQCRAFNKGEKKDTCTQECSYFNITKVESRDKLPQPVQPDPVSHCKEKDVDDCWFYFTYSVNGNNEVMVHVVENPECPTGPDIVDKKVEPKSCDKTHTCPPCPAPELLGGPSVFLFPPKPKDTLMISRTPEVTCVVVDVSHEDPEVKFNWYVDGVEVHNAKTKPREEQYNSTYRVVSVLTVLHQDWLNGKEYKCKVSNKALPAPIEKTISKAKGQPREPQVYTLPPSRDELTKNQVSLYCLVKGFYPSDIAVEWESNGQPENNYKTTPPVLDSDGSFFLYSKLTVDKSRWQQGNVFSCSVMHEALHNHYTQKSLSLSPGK
human VLA4 (integrin alpha4beta1) on the surface of U937 cells, sequence (P13612 34-1032, chain 1 of 2): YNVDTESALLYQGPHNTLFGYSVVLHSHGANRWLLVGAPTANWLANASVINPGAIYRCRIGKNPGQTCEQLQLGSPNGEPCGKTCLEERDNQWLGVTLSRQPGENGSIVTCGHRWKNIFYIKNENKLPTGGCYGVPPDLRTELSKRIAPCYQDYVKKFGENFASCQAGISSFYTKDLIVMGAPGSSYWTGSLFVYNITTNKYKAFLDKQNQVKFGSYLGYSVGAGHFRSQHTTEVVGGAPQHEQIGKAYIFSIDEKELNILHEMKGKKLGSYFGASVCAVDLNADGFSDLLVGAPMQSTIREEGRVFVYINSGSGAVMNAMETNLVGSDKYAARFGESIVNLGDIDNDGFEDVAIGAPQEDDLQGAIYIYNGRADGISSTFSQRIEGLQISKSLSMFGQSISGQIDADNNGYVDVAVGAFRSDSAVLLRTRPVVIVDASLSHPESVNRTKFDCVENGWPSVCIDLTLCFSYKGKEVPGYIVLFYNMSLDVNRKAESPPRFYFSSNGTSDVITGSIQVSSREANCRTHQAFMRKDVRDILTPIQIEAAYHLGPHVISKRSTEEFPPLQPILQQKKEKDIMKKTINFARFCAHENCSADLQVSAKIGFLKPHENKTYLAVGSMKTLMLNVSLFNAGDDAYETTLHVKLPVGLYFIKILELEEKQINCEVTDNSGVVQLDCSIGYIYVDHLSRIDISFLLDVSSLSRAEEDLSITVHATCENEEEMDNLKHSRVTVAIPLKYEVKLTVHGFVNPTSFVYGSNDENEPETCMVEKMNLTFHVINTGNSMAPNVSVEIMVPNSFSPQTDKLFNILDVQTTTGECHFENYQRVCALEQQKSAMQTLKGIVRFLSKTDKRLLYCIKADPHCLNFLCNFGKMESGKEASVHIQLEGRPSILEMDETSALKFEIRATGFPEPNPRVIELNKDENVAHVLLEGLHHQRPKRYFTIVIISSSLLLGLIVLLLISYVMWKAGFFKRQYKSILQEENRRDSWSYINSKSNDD
human VLA4 (integrin alpha4beta1) on the surface of U937 cells, sequence (P05556 21-798, chain 2 of 2): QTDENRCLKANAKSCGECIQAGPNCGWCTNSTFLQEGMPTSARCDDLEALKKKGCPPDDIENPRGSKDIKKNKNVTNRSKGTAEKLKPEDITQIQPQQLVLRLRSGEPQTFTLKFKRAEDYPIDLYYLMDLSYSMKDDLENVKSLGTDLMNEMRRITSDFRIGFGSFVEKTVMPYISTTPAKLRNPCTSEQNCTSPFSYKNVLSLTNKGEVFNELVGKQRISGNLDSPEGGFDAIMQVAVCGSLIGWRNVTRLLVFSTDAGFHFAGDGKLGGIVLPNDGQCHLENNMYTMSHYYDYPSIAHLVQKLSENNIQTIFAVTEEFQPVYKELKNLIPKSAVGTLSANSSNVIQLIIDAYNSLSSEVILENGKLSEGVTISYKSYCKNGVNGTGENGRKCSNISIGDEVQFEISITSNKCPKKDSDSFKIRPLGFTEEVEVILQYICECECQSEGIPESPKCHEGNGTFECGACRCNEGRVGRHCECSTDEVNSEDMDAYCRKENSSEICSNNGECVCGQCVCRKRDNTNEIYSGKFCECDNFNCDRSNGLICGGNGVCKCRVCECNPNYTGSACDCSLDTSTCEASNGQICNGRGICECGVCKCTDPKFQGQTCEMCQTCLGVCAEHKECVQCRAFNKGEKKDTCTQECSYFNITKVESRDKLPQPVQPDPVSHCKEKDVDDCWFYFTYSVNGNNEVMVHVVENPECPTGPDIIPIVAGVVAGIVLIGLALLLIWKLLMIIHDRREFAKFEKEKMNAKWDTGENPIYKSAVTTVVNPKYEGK

B1: 2D-VCAM-1 variant Clone 46 (ligand)
chain: FKIETTPESRYLAQIGDSVSLTCSTTGCESPFFSWRPQLDAPLNGKVTNEGTTSTLTMNPVSFGNEHSYLCTATCESRKLEKGIQVEIYSFPKDPEIHLSGPLEAGKPITVKCSVADVYPFDRLEIDLLKGDHLMKSQEFLEDADRKSLETKSLEVTFTPVIEDIGKVLVCRAKLHIDEMDSVPTVRQAVKELQVYISP
notes: also called Clone 046; not shown: His tag
In the case of B1, the “IC50 of inhibition of U937 cell adhesion to immobilized 7D-VCAM-1” value in test [1] was 6.4 nM and 0.16 mg/ml. Also, in test [2], the “fold-improvement in binding relative to Q38L-2D-VCAM-1” value was determined as 21 fold and the “fold-improvement in binding relative to human 2D-VCAM-1” value is 172 fold. Besides, the “fold improvement in binding relative to Q38L-2D-VCAM-1” value in test [3] is 1 fold.

B2: 2D-VCAM-1 variant Clone 59 (ligand)
chain: FKIETTPESRYLAQIGDSVSLTCSTTGCESPFFSWRPLLDSPLNGKVTNEGTTSTLTMNPVSFGNEHSYLCTATCESRKLEKGIQVEIYSFPKDPEIHLSGPLEAGKPITVKCSVADVYPFDRLEIDLLKGDHLMKSQEFFEDAAWKSLETKSLEVTFTPVIEDIGKVLVCRAKLHIDEMDSVPTVRQAVKELQVYISP
notes: also called Clone 059; not shown: His tag
With B2, in test [2], the “fold-improvement in binding relative to Q38L-2D-VCAM-1” value amounted to 34 fold and the “fold-improvement in binding relative to human 2D-VCAM-1” value stood at 272 fold. In addition, the “fold improvement in binding relative to Q38L-2D-VCAM-1” value in test [3] came out at 80 fold.

B3: Q38L-2D-VCAM-1 (ligand)
chain: FKIETTPESRYLAQIGDSVSLTCSTTGCESPFFSWRTLIDSPLNGKVTNEGTTSTLTMNPVSFGNEHSYLCTATCESRKLEKGIQVEIYSFPKDPEIHLSGPLEAGKPITVKCSVADVYPFDRLEIDLLKGDHLMKSQEFLEDADRKSLETKSLEVTFTPVIEDIGKVLVCRAKLHIDEMDSVPTVRQAVKELQVYISP
notes: also called Q38L 2D-VCAM-1 polypeptide; not shown: His tag
B3: in test [2], the “fold-improvement in binding relative to Q38L-2D-VCAM-1” value was found to be 1 fold and the “fold-improvement in binding relative to human 2D-VCAM-1” value turned out to be 8 fold. In test [3], the “fold improvement in binding relative to Q38L-2D-VCAM-1” value was 1 fold.

B4: 2D-VCAM-1 variant Clone 47 (ligand)
chain: FKIETTPESRYLAQIGDSVSLTCSTTGCESPFFSWRPLLDSPLNGKVTNEGTTSTLTMNPVSFGNEHSYLCTATCESRKLEKGIQVEIYSFPKDPEIHLSGPLEAGKPITVKCSVADVYPFDRLEIDLLKGDHLMKSQEFLEDADRKSLETKSLEVTFTPVIEDIGKVLVCRAKLHIDEMDSVPTVRQAVKELQVYISP
notes: also called Clone 047; not shown: His tag
For the molecule B4, in test [2], the “fold-improvement in binding relative to Q38L-2D-VCAM-1” value worked out at 16 fold and the “fold-improvement in binding relative to human 2D-VCAM-1” value turned out to be 128 fold. In addition, the “fold improvement in binding relative to Q38L-2D-VCAM-1” value in test [3] amounted to 17 fold.

B5: 2D-VCAM-1 variant Clone 146 (ligand, not shown: small tags and cut ends)
chain: FKIETTPESRYLAQIGDSVSLTCSTTGCESPLFFWRPLLDSPLNGKVTNEGTTSTLTMNPVSFGNEHSYLCTARCESRSLEKGIQVEIYSFPKDPEIHLSGPLEAGKPITVKCSVADVYPFDRLEIDLLKGDHLMKSQEFLEDADRKSLETKSLEVTFTPVIEDIGKVLVCRAKLHIDEMDSVPTVRQAVKELQVYISP
Take B5: the “IC50 of inhibition of U937 cell adhesion to immobilized 7D-VCAM-1” value in test [1] was 0.8 nM and 0.02 mg/ml. In test [3], the “fold improvement in binding relative to Q38L-2D-VCAM-1” value was found to be 74 fold. Further, the “fold-improvement in binding relative to human 2D-VCAM-1” value in test [4] was found to be 298 fold.
